Test results as given in the DeepSol protein solubility set.

test: soluble on expression in E. coli; label from the status in PepcDB or PDB records

| Sequence | soluble on expression in E. coli |
| --- | --- |
| REATWVTEKPLTLKIHMHFRDKWVWDENWPVAREVARLTNVKLVGVANRAATNSQEQFNLMMASGQLPDIVGGDNLKDKFIRYGMEGAFIPLNKLIDQNAPNLKAFFKTHPEVQRAITAPDGNIYYLPYVPDGLVSRGYFIRQDWLDKLHLKTPQTVDELYTVLKAFKEKDPNGNGKADEIPFINRDPEEVFRLVNFWGARSTGSNTWMDFYVENGKIKHPFAEVAFKDGIKHVAQWYKEGLIDPEIFTRKARSREQTFGNNIGGMTHDWFASTALFNDALSKNIPGFKLVPMAPPINSKGQRWEEDARQIPRPDGWAITATNKNPVETIKLFDFYFGPKGRELSNFGVPGLTYDIKNGKPVYKDTVLKAAQPVNNQMYDIGAQIPIGFWQDYEYERQWTNDVALQGIDMYIKNKYVLPQFTGVNLTVEEREIYDKYWPDVKTYMFEMGQSWVMGTKDPEKTWNDYQQQLKNRGFYQVMIVMQKAYDRQY | soluble |
| MYADRDLPGAGGLAVRVIPCLDVDDGRVVKGVNFENLRDAGDPVELAAVYDAEGADELTFLDVTASSSGRATMLEVVRRTAEQVFIPLTVGGGVRTVADVDSLLRAGADKVAVNTAAIACPDLLADMARQFGSQCIVLSVDARTVPVGSAPTPSGWEVTTHGGRRGTGMDAVQWAARGADLGVGEILLNSMDADGTKAGFDLALLRAVRAAVTVPVIASGGAGAVEHFAPAVAAGADAVLAASVFHFRELTIGQVKAALAAEGITVR | not soluble |
| RPAIRKRLLKPKVLDSSPRALVGHRAEVLEDVGATSGQVRLDGSIWSARSMDPTHTFAEGEIVSVIDIQGTTAIVWKEA | soluble |
| MCHKLPKTHNCTFFRKLSNWHSGILISLEQKVTGSIPARETVQLAQWYFDFFGAEGHGFNPREGNCPTGAGVYLTSLEQKVTGSIPAWENNFCLIC | not soluble |
| MKIQMKTPLVELDGDEMTRVLWPLIKDKLLLPFIDLQTEYYDLGIEERDRTNDQITIDAAEAIKKYGVGVKNATITPNQDRVEEYGLKEQWKSPNATVRAMLDGTVFRKPIMVKNIKPSVRSWQKPIVVGRHAYGDFYKNAEIFAEAGGKLEIVVTDKNGKETRQTIMEVDEPAIVQGIHNTVASIGHFARACFEYSLDQKIDCWFATKDTISKQYDQRFKIIFEEIFAQEYKEKFAAAGIEYFYTLIDDVVARMMKTEGGMLWACKNYDGDVMSDMVASAFGSLAMMSSVLVSPYGYFEYEAAHGTVQRHYYQHLKGERTSTNPVALIYAWTGALRKRGELDGTPDLCAFCDSLEAITIECIESGYMTGDLARICEPAAIKVLDSIEFIDELGKRLQQLNK | soluble |
| MPADIMEKNSSSPVAASVNTTPDKPKTASEHRKSSKPIMEKRRRARINESLSQLKTLILDALKKDSSRHSKLEKADILEMTVKHLRNLQRAQMTAALSTDPSVLGKYRAGFSECMNEVTRFLSTCEGVNTEVRTRLLGHLANCMTQINAMTYPGQPHPALQAPPPPPPGPGGPQHAPFAPPPPLVPIPGGAAPPPGGAPCKLGSQAGEAAKVFGGFQVVPAPDGQFAFLIPNGAFAHSGPVIPVYTSNSGTSVGPNAVSPSSGPSLTADSMWRPWRN | soluble |
| MGSDKIHHHHHHMLFLSGLLGVSAQRVALKNNLLYDATLTPNLALEIGVGPKMTVDLLGGVNPFKISDDHYWKHWLAQPELRYWFCEKFNGVCIGLHGHVGQMNIAGISVPPVGSIHPKSDFDDARYHRYQGWFYGGGISIGRQWILGNHWNLEASIGGGYIHFDYDKYQCVECGKKVGVDKKADYFGLTRATLSLIYLFK | not soluble |
| MFTATEAVPVAKVVAGNKRYPGVVALDNVNFTLNKGEVRALLGKNGAGKSTLIRMLTGSERPDSGDIWIGETRLEGDEATLTRRAAELGVRAVYQELSLVEGLTVAENLCLGQWPRRNGMIDYLQMAQDAQRCLQALGVDVSPEQLVSTLSPAQKQLVEIARVMKGEPRVVILDEPTSSLASAEVELVISAVKKMSALGVAVIYVSHRMEEIRRIASCATVMRDGQVAGDVMLENTSTHHIVSLMLGRDHVDIAPVAPQEIVDQAVLEVRALRHKPKLEDISFTLRRGEVLGIAGLLGAGRSELLKAIVGLEEYEQGEIVINGEKITRPDYGDMLKRGIGYTPENRKEAGIIPWLGVDENTVLTNRQKISANGVLQWSTIRRLTEEVMQRMTVKAASSETPIGTLSGGNQQKVVIGRWVYAASQILLLDEPTRGVDIEAKQQIYRIVRELAAEGKSVVFISSEVEELPLVCDRILLLQHGTFSQEFHAPVNVDELMSAILSVH | soluble |
| MQVDYQQLNGIALAYLGDAVYEPFIRQHLIESGFTKATKLHHHATHYVSAKAQAALIERMQAEEVLTPTEVDVFKRGRNAKSHTSAKHTDVVTYRISTGFEAVFGYLQLTQQADRIAELAQWCIKQVDEGRVSSVKLEHHHHHH | soluble |
| MSTGATIVIDLGKTLSKVSLWDLDGRMLDRQVRPSIPLEIDGIRRLDAPDTGRWLLDVLSRYADHPVTTIVPVGHGAGIAALTDGRLAFPPLDYEQSIPEAVMADYRSQRDPFARTGSPALPDGLNIGSQLWWLDQLHPDVMANATLLPWAQYWAWFLTGRAVSEVTSLGCHSDLWDPQDGDFSPMAKRLGWAARFAPIVRAGDTVGALLPAIAERTGLSPDVQVLAGLHDSNAALLAARLEHHHHHH | not soluble |
| MGSDKIHHHHHHMGETNQQGVKNPLQTKEVAERQAKKEKQVVFIYYDHEPTYKLLEDQLVDQGDFELVSTNQSEDAVAILGSLSIDSVVFINTAKSKQMYQLYEKTSGSHHYLHAPFFYIGECSHEEMGQIFANGHEFISSPFNLETFYLKMKAKLDHCTRIKNDRQIDLVTQLYTERFLEKMFHLQVANLVRFKTSFTVIFLSLYNYYELKTKYGLTIADQIVATVSDYIKSQVRDSDLAFRMDAEDEIAVILPNGGQTEAGYFVRRVFEHIPPVTTTENGEPLQFFIELSASIVEINNADVTYEEMLEKGKEALQEAVFKGASTIETVNDFQEPNVEKIKVTVIVEDQVIRSVLVNLLQRLTLEYFELDVQTFFDGEALLESSWHRSAHTHIVIMDDVLPKRNGLEMVHELRKMPNNEKYIVMMLSNRKTEEDVTYAFEMGVDDYITKPFNVKFVESRLKRYLKRLR | not soluble |
| MTTETRSLYSQLPAIDRLLRDSSFLSLRDTYGHTRVVELLRQMLDEAREVIRGSQTLPAWCENWAQEVDARLTKEAQSALRPVINLTGTVLHTNLGRALQAEAAVEAVAQAMRSPVTLEYDLDDAGRGHRDRALAQLLCRITGAEDACIVNNNAAAVLLMLAATASGKEVVVSRGELVEIGGAFRIPDVMRQAGCTLHEVGTTNRTHANDYRQAVNENTALLMKVHTSNYSIQGFTKAIDEAELVALGKELDVPVVTDLGSGSLVDLSQYGLPKEPMPQELIAAGVSLVSFSGDKLLGGPQAGIIVGKKEMIARLQSHPLKRALRADKMTLAALEATLRLYLHPEALSEKLPTLRLLTRSAEVIQIQAQRLQAPLVAHYGAEFAVQVMPCLSQIGSGSLPVDRLPSAALTFTPHDGRGSHLESLAARWRELPVPVIGRIYDGRLWLDLRCLEDEQRFLEMLLK | not soluble |
| MSALQSLRPALRTAYGLAVRSDIDLPELEPLPGDGAADLTVRRGALPELPGEGGFRTRFAPERAELWWQTVGTFRVEPGLVTASPHAGVSEDLVAYPLLGSVLALALEQLGLFTIHASAVSVGGHGVVMMGDKGAGKSTTATAMIRAGHPLIADDIVAVDEGFRLRPGFPQVKLSPAAAAAFDAPDAVHRPTVPEVPEKCRVLLPERFARGATPLKRIYRLERAPAGTEPAVISVSPIEALPLALRFAYVTRFGAEALNGAAGARHLRQAAAIAASGVLHRVIVPHALDRLPEVVALIERDAGAAALEHHHHHH | not soluble |
| MAHHHHHHMLDDLKTAYTPAVASKICYVASQLRIDATKGQPYTAVLEATMTAEGEQAMEVASLARIVHSCLVLRSGHLHEVLFTFIPFLREKAGTMDAVTTAVLINAYGRSGVHHPGLYKALCDNGATVLKDPRVPLAHIANVAYAVSRVKFLHPALMLTLRDHALRKVAEASPIISLTVLDAFTELRQIDDDLFNAYEQRLLGQLNELQAPLMASLVSCVVRAGRGKAEVMESLGARTVAIADTFDAASIAKVTNAYYEADVASEDVLGALAERACKVAADFRADEIATVLNALSAFDLFDAELFPLLASRLVALHRQGGYVDVADAAVILSSFAAVQERNDELIYVCTQLFAAYPGVAMDPAVRVNALWACASLNVHNEAQTKMLEEVRATPSLVMWESKTDTLPKAKATLEERTRFLAKVYGITISSSGAR | soluble |
| MLKHDLDYLELLSESFPTATEAATEIINLEAILNLPKGTEHFLADIHGEYEAFIHVLKNASGSIRRKVDEVFGGQLRQNQKRELCTLIYYPREKLELVKQSDERMEDWYMVTLNQLIKVCQKAAEKYTRSKVRKTLPPKYSYIIQELLHEDGVNPNKSAYISSIFSSIISTGCADDFIIAISETIQRLVIDHLHVVGDVFDRGPGAHIIMDTLMKYHHFDIQWGNHDMLWMGAAVGNASCMANVVRIALRYANLDTLESGYGINLLPLARFAMDTYADDPCTVFKPKLAQADQTYDDKSVYLISQMHKAISIIQFKLEHQIIARHPEYKMDNRDLFHLVNFTDGTIKLSSGVYPMLDMNFPTVDPADPYALTEQEQNIVDRLMGCFMRSEKLQNHLKCLYRHGSMYLTYNMNLLYHASIPLNKDKSLKKVRVGDKTYAGRELLDKVEEMIRTAYVAPEKSDQRLAAVDYMWYLWCGPDSPLFDKAMMTTFERYFIEDKATHHEEKGYYYVYRQEKAVCEMILKEFGLEGPDTHIINGHVPVKAKKGELPIGAEGKLMLIDGGFSKAYQSSTGIAGYTLIFNSQGLHLVQHEPFSSTRKAIEEMEDIKSITVVREVTSHRMLVKDTDNGHLLSKQVENLKKLLQAYSYGLIKERKK | not soluble |
| MSSNTTEHGEHFNESIVNEVILEDMKKNRIDHMKYLPGMETMEESDVMEQVITAMNAYDYDKYTEKDVRRALEHDNRTVEDFQALLSPAALPLLEEIAQAARVETRKHFGNSVYMFTPIYIANYCENYCIYCGFNCHNKIRRAQLNAEEIDKEMAAIAKTGLQEILILTGESRIKSDVKYIGEACKIARKYFKVIGLEVYPMNSDEYHYLHECGADYVTVFQETYNSDKYETLHLAGHKRIFPYRLNAQERALKGGMRGVGFAALLGLDDFRKDAFATGYHAWLLQRKYPHAEIAFSCPRLRPIINNDRINPMDVHEPQLLQVVCAYRLFMPFASITVSTRECERVRDNLVNIAATKISAGVSTGIGSHVEDIEDKGDDQFEISDGRSVDEVYQALLNHDLQPVMNDYVYL | not soluble |
| MGHHHHHHSHMSDAGMPSLSDPGMSLAAYALKHNIQYDVLPGANALTTAFCASGFLEGRFFYAGFLPHKSKERRLKIAKILNALAYLEEKTPVVFYESPHRLLETLKDLNDLAKGMHLFAAKELTKLHQQYYLGEVSQIIERLQQSTIQGEWVLVLLNEKKIEPCMGLSALLELDLPPKIKAKIEAVMTQKNAKELYFQRLLEEKNQ | not soluble |
| MPSEKEDDVMKNVTFAEGKKFGDWKIGKTIDEGGFGKVYIATSISDPKKVAALKAESNEIEGGSAIKLEAMILNKLNANGPVPHIPVVHLCAKRKLYCYMVMTLLGRNLRKLKSTNLVVNNGFSRGTWSRIGIQCLYALKYVHDNGFIHRDVKPQNFLLGNETDSERARIVHILDFGLARPFAVFHARENKWIARRARGTAEFRGTLRYTSPNVHLRKEQGRVDDVWSLLYVIIELNGGKALPWQTDSQRERVEQMKLNLPAKVVMSNMPACMDKVMPHLASLDYYQRPDYHMIFKCFWQVMENEKITPSSKYDWEKDEPDKSVPPASWENPAGPFFQSDPLGINAPPTPAEAALTEKSGKKHGKK | soluble |
| MVGQVIRKRGAYPEYTVEDVLAVIFLLKEPLGRKQISERLELGEGSVRTLLRKLSHLDIIRSKQRGHFLTLKGKEIRDKLLSMFSEPIGVSVDGYPGIAIVVKNPPEFKSIELRDEAIKFDAKGAMILTVKDNEIVFPEDFRPLKEMYPEVAKKIVDYEDGDAVIITWAETPAKALKSAIHVAYILKKEEITPEILEVVK | soluble |
